How the values were obtained:
[1] = target: T1, human PD-L1 (human, UniProt Q9NZQ7 19-290); assay: flow cytometry on PD-L1 tf CHO-S cells, PE goat anti-human IgG; EC50 from the table under the curves
T1 construct: whole, on cells; For the PD-L1 tf DLD1 cells the species of PD-L1 is not restated; also called PD-L1 tf CHO-S; PD-L1 tf DLD1
Protocol: (§1) The samples were analyzed using a CytoFLEX flow cytometer (Beckman Coulter Inc., CA, USA).
The EC50 values were also determined according to the binding curves.

[2] = target: T1, human PD-L1; assay: flow cytometry on PD-L1 tf DLD1 cells in a 1:1 mixture with DLD1 cells, PE goat anti-human IgG [D]
Protocol: The selective binding ability of HCB301_v5 proteins to PD-L1-expressing cells was determined as follows. DLD1 cells were labeled with CellTrace™ CFSE (Thermo, Cat #: C34554) and tf DLD1 cells expressing PD-L1 (PD-L1 tf DLD1) were labeled with Celltrace™ (Thermo, Cat #: C34557) according to the instructions provided by manufacturer. […] The samples were analyzed using a CytoFLEX flow cytometer (Beckman Coulter Inc., CA, USA). Afterwards, the cells were gated according to PE signals to calculate the percentages of different cell types by Kaluza analysis software (Beckman Coulter Inc.).

[3] = target: T2, human CD47 (human, UniProt Q08722 19-323); assay: flow cytometry on CD47 tf CHO-S cells, PE goat anti-human IgG
T2 construct: whole, on cells; also called CD47 tf CHO-S; endogenous CD47 on FaDu and NCI-H460 cells
Protocol: To determine the whole cell binding ability of the HCB301_v5 proteins to CD47 expressed on cell surface, tf CHO-S cells expressing human CD47 (CD47 tf CHO-S) were used as target cells. […] The samples were analyzed using a CytoFLEX flow cytometer (Beckman Coulter Inc., CA, USA).
The EC50 values were determined according to the binding curves.

[4] = target: T1, human PD-L1; assay: flow cytometry competition on PD-L1 tf CHO-S cells against a fixed concentration of biotinylated PD1_G4, streptavidin-PE; IC50 from the table under the curves
[5] = target: T2, human CD47; assay: flow cytometry on human platelets (CD47 on platelets per paragraph 5), PE goat anti-human IgG
Protocol: as §1

T1 sequence (Q9NZQ7 19-290): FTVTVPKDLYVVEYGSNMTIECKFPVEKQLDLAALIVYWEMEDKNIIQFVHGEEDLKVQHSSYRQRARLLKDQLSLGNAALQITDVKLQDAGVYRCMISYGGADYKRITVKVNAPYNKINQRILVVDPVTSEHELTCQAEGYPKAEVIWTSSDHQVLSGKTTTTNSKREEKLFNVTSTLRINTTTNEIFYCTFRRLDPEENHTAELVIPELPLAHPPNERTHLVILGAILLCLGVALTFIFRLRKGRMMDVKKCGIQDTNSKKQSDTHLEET

Row | Binder | EC50 [1] | EC50 (read off the curve) [2] | binding result [3] | IC50 [4] | binding result [5]
1 | anti-PD-L1 VHH (2H4) (VHH) VHH: QVQLVESGGGVVQPGRSLRLSCAASGGPFMSYAMGWFRQAPGKEREFVAAIRWNGISTFYADSVKGRFTISRDNSKNTLYLQMNSLRAEDTAVYYCAAAQTIVTVPENYHFDYWGQGTQVTVSS | 0.22 nM | ~0.8 nM | no binding (tested: 500 nM) | 0.392 nM | 
2 | h1G4 (antibody, human IgG4 S228P, kappa, V domains shown, also called negative control) VH: QVQLVESGGGLVKPGGSLRLSCAASGFTFSNYGMSWIRQAPGKGLEWVSTISGGGSNIYYADSVKGRFTISRDNAKNSLYLQMNSLRAEDTAVYYCVSYYYGIDFWGQGTSVTVSS VL: DIQMTQSPSSLSASVGDRVTITCKASQDVTTAVAWYQQKPGKAPKLLIYWASTRHTGVPSRFSGSGSGTDFTLTISSLQPEDFATYYCQQHYTIPWTFGGGTKLEIKR |  |  |  |  | no binding (tested: 20 nM)

— US20240400691A1 (FBD BIOLOGICS, published 2024)
